This is an account of results in patent US20160168251A1 (MorphoSys, published 2016).

In experiment [1] the target is T1, human NPRA on HEK293 cells bound to ANP (human, UniProt P01160 124-151).
T1 sequence: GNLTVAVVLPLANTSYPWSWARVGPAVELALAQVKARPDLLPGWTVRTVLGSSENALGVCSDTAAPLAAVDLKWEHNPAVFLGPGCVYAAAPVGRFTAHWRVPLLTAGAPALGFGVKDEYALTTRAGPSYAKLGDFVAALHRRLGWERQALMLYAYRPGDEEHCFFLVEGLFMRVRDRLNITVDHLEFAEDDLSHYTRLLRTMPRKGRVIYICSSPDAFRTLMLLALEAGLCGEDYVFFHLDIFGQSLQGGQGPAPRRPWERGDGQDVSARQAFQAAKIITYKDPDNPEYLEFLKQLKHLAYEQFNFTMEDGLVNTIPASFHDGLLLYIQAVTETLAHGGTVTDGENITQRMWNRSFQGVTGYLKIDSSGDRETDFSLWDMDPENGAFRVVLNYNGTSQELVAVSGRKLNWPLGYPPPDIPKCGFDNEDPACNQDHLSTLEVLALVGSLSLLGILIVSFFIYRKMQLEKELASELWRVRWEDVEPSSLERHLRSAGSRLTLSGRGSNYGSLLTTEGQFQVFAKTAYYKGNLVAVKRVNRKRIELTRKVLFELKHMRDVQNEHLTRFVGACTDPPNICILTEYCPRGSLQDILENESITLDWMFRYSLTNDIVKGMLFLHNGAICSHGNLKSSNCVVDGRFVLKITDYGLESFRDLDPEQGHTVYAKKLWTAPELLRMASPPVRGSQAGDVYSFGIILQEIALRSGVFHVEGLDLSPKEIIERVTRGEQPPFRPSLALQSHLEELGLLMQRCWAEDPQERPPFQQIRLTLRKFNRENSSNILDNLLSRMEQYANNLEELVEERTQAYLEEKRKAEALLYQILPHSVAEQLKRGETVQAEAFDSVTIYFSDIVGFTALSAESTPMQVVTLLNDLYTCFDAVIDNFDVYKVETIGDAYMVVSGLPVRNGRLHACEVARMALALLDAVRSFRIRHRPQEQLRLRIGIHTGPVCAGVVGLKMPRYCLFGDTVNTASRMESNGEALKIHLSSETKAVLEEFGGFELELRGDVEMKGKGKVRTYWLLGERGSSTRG
T1 sequence (peptide): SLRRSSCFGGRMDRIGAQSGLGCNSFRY
Description: cell-based or functional assay.

Experiment [2] has as its target T1, human NPRA on HEK293 cells bound to ANP. Description: FACS, HEK NPRA cells loaded with 100 nM ANP.
Experiment [3] has as its target T2, human NPRC on HEK293 cells, without added ligand (human, UniProt P17342 27-541).
T2 construct: whole, on cells; also called HEK NPRC cells; natriuretic peptide receptor C
T2 sequence (looked up): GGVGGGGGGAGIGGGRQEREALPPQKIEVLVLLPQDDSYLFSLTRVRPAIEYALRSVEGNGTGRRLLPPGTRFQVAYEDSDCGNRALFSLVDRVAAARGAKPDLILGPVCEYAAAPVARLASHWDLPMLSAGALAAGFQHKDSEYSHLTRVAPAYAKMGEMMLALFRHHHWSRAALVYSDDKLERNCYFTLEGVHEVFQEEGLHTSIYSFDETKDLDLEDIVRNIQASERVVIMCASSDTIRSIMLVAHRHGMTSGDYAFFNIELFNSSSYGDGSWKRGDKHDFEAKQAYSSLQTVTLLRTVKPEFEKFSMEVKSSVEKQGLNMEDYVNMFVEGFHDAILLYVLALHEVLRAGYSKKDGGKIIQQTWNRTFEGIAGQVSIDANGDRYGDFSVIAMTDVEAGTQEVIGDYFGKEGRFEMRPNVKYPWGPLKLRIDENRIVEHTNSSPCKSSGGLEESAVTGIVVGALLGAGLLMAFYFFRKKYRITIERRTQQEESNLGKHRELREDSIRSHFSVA
Description: FACS, HEK NPRC cells without ligand. A general note: In flow cytometry, cells or beads pass a laser one at a time.
Description: (§1) HEK NPRA cells are detached with Accutase (PAA Laboratories GmbH, Cat. No. L11-007, Austria), harvested by centrifugation (900 rpm, 4 minutes) and resuspended in FACS buffer (PBS/3% FCS/0.02% NaN3) to a final concentration of 10⁶ cells/ml. 100 μl of the cell suspension is transferred to each well of a 96 round bottom plate (TC Microwell 96U, Nunc). […] Cells are washed in 150 μl of FACS buffer, pelleted and resuspended in 50 μl of the solution containing the primary antibody comprising a BEL extract of Fabs, a diluted BEL extract or purified antibody diluted in FACS buffer and incubated on ice for 30 min. Cells are washed again in FACS buffer and resuspended in 50 μl of FACS buffer containing the secondary antibody (R-Phycoerythrin-conjugated Affipure F(ab′)₂ Fragment Goat Anti-Human IgG, Dianova) and incubated on ice for 45 min. Cells are washed twice with FACS buffer and resuspended in 200 μl of FACS buffer for analysis in the FACS Array (BD Biosciences).

The target in experiment [4] is T3, human NPRC on HEK293 cells in the presence of ANP (human, UniProt P17342 27-541; P01160 124-151).
T3 construct: whole, on cells;mature; also called HEK NPRC cells + 100 nM ANP
T3 sequence (looked up): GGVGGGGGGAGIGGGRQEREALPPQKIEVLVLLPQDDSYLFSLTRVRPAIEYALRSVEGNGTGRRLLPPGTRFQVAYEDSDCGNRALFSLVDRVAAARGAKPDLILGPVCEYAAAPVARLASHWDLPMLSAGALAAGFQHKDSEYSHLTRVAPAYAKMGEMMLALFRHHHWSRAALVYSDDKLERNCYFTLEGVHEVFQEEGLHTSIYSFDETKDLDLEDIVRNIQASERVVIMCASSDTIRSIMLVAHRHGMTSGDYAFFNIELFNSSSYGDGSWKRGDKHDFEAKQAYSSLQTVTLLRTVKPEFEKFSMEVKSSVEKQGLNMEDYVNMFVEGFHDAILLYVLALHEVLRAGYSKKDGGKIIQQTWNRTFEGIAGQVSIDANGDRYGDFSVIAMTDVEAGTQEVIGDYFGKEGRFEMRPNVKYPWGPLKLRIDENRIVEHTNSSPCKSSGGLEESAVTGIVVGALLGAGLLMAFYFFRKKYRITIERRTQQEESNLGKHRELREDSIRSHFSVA
T3 sequence (peptide, looked up): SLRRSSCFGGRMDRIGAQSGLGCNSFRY
Description: FACS, HEK NPRC cells with 100 nM ANP.
Description: as §1

For experiment [5], the target named is T4, human NPRC on HEK293 cells in the presence of BNP (human, UniProt P17342 27-541; P16860 103-134).
T4 construct: whole, on cells;mature; also called HEK NPRC cells + 100 nM BNP
T4 sequence (looked up): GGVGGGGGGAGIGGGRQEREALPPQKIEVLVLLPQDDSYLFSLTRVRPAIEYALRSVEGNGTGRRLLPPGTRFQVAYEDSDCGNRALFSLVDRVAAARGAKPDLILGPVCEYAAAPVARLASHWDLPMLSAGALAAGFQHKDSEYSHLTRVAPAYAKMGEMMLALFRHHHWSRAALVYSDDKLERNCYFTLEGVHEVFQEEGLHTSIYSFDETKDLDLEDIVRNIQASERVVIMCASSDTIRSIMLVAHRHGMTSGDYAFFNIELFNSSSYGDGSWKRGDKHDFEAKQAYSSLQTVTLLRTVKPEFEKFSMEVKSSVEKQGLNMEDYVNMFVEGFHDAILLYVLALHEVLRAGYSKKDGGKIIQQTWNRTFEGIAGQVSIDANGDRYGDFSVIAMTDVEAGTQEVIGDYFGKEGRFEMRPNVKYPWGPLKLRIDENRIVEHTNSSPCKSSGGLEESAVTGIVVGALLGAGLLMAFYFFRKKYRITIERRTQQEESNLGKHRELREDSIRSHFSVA
T4 sequence (peptide, looked up): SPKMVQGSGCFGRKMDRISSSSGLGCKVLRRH
Description: FACS, HEK NPRC cells with 100 nM BNP.
Description: as §1

Experiment [6] deals with T1, human NPRA on HEK293 cells bound to ANP. Description: FACS, IgG4_Pro on HEK NPRA cells in the presence of 100 nM ANP.
Description: as §1
The target in experiment [7] is T5, human NPRA on HEK293 cells, without added ligand (human, UniProt P16066 33-1061).
T5 construct: a signal peptide is not delimited; also called HEK NPRA cells; HEK hNPRA cells
T5 sequence: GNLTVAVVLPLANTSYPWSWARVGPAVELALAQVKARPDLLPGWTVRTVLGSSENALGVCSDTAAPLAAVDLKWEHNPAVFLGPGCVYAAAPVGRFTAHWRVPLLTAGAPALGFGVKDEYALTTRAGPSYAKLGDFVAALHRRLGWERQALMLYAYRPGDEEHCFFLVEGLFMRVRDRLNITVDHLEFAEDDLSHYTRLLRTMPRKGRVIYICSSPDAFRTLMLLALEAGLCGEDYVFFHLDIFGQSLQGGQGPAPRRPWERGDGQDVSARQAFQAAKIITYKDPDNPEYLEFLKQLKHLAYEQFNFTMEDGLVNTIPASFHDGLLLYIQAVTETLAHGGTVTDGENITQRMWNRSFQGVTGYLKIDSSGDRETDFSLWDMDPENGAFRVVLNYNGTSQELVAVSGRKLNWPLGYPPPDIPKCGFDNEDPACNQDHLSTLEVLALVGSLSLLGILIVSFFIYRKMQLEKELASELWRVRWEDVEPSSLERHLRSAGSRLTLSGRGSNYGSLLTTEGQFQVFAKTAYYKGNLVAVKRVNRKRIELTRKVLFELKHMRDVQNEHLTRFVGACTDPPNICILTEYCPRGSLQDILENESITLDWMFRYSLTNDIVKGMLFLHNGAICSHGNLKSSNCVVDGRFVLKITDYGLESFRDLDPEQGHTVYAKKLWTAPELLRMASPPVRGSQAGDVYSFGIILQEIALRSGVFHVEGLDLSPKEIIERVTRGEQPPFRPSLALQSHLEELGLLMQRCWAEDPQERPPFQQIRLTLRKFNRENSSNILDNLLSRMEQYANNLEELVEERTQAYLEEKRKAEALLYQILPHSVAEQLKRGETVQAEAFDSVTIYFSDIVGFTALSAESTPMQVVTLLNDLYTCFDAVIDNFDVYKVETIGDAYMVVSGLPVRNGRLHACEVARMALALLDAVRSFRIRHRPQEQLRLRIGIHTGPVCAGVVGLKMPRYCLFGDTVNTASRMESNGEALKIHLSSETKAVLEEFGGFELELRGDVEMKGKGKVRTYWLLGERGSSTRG
Description: FACS, HEK NPRA cells without ligand.

Experiment [8] deals with T6, NPRA-Fc fusion protein, without ligand (human).
T6 construct: also called NPRA-ECD-Fc; recombinant NPRA-Fc
T6 chain: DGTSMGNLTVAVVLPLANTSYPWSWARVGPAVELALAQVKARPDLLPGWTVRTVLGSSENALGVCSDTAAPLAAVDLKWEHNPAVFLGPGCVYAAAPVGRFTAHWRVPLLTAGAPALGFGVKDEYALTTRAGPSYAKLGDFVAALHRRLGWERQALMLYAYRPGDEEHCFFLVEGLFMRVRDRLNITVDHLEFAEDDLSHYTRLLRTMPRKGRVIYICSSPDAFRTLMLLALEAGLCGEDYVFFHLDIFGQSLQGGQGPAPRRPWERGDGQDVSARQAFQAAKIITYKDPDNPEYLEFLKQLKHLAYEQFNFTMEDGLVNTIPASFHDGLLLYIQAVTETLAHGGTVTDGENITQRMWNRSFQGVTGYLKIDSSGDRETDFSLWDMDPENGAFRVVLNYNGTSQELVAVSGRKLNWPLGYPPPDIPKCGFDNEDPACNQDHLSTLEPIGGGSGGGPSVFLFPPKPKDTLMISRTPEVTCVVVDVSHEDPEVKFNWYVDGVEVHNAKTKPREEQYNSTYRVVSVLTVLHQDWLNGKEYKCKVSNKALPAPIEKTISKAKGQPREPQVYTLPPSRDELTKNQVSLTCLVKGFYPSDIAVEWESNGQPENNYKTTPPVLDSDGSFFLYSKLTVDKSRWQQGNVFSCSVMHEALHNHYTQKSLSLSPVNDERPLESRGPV
Description: ELISA on captured NPRA-Fc without ligand. Background: ELISA stands for enzyme-linked immunosorbent assay.

A further experiment concerns the target T7, biotinylated ANP (UniProt P01160 124-151, biotin label (position not given)).
T7 construct: mature; Text: conjugated to Streptavidin beads; also called biotin-labeled ANP
T7 peptide (looked up): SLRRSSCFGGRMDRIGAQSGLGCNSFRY
Description: binding to biotinylated ANP on streptavidin, ECL readout (legend: ELISA).

B1: 5064 IgG4_Pro (antibody, V domains shown)
VH: QVQLQQSGPGLVKPSQTLSLTCAISGDSVSSRSASWSWIRQSPGRGLEWLGRIYYRSKWYNDYAVSVKSRITINPDTSKNQFSLQLNSVTPEDTAVYYCARMDVPSFRYFDVWGQGTLVTVSS
VL: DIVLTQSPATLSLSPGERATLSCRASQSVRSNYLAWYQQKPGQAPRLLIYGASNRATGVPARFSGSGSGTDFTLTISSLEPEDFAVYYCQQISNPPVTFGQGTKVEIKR
Usually EC50 stands for the midpoint of the concentration-response curve. With B1, the “cGMP EC50 (nM), titration of the antibody on HEK NPRA cells with 200 pM ANP” value in experiment [1] was found to be 12.1 nM. The 50% effective concentration (EC50) was determined as 1.6 nM in [2] and 1.08 nM in [6]. In addition, the binding result in experiment [3], in [4] and in [5] was “no binding (tested: 20 nM)” in each case.

B2: 5064 Fab-dHLX (other)
VH: QVQLQQSGPGLVKPSQTLSLTCAISGDSVSSRSASWSWIRQSPGRGLEWLGRIYYRSKWYNDYAVSVKSRITINPDTSKNQFSLQLNSVTPEDTAVYYCARMDVPSFRYFDVWGQGTLVTVSS
VL: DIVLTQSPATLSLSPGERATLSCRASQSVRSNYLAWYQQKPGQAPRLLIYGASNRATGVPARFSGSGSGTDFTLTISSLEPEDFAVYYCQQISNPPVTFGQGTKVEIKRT
Regarding B2, the figures for the binding result (in experiment [7]; in experiment [8]; in the experiment with biotinylated ANP) were “no binding (tested: 20 µg/ml)”, “no binding (tested: 20 µg/ml)” and “no binding (tested: 10 nM)”, respectively.
